{"source": "FireProtDB (doi:10.1074/jbc.272.30.18686)", "parents": {"B1": {"name": "Ribonuclease HI, P0A7Y4 (parent)", "chain": "MLKQVEIFTDGSCLGNPGPGGYGAILRYRGREKTFSAGYTRTTNNRMELMAAIVALEALKEHCEVILSTDSQYVRQGITQWIHNWKKRGWKTADKKPVKNVDLWQRLDAALGQHQIKWEWVKGHAGHPENERCDELARAAAMNPTLEDTGYQVEV"}}, "variants_of": "B1", "details": "Escherichia coli (strain K12), pH 3.2, Thermal, CD, glycine-HCl 10 mM, reversible: yes, structure 2RN2, whole UniProt chain shown; for ddG of mutation (higher = less stable): 53 °C", "data": [{"variant": "MLKQVEIFTDGSCLGNPGPGGYGAILRYRGREKTFSAGYTRTTNNRMELMAFIVALEALKEHCEVILSTDSQYARQGITQWIHNWKKRGWKTADKKPVKNVDLWQRLDAALGQHQIKWEWVKGHAGHPENERCDELARAAAMNPTLEDTGYQVEV", "values": [{"measurement": "Tm", "value": 48.4, "unit": "°C"}, {"measurement": "change of melting temperature, mutant - wild type (higher = more stable)", "value": -4.6, "unit": "°C"}, {"measurement": "unfolding enthalpy (van 't Hoff)", "value": 85.8, "unit": "kcal/mol"}]}, {"variant": "MLKQVEIFTDGSCLGNPGPGGYGAILRYRGREKTFSAGYTRTTNNRMELMAVIVALEALKEHCEVILSTDSQYLRQGITQWIHNWKKRGWKTADKKPVKNVDLWQRLDAALGQHQIKWEWVKGHAGHPENERCDELARAAAMNPTLEDTGYQVEV", "values": [{"measurement": "ddG of mutation (higher = less stable)", "value": -2.43, "unit": "kcal/mol"}, {"measurement": "Tm", "value": 61, "unit": "°C"}, {"measurement": "change of melting temperature, mutant - wild type (higher = more stable)", "value": 8.07, "unit": "°C"}, {"measurement": "unfolding enthalpy (van 't Hoff)", "value": 126, "unit": "kcal/mol"}]}, {"variant": "MLKQVEIFTDGSCLGNPGPGGYGAILRYRGREKTFSAGYTRTTNNRMELMAGIVALEALKEHCEVILSTDSQYVRQGITQWIHNWKKRGWKTADKKPVKNVDLWQRLDAALGQHQIKWEWVKGHAGHPENERCDELARAAAMNPTLEDTGYQVEV", "values": [{"measurement": "Tm", "value": 44.1, "unit": "°C"}, {"measurement": "change of melting temperature, mutant - wild type (higher = more stable)", "value": -8.9, "unit": "°C"}, {"measurement": "unfolding enthalpy (van 't Hoff)", "value": 91, "unit": "kcal/mol"}]}, {"variant": "MLKQVEIFTDGSCLGNPGPGGYGAILRYRGREKTFSAGYTRTTNNRMELMAHIVALEALKEHCEVILSTDSQYVRQGITQWIHNWKKRGWKTADKKPVKNVDLWQRLDAALGQHQIKWEWVKGHAGHPENERCDELARAAAMNPTLEDTGYQVEV", "values": [{"measurement": "Tm", "value": 41.2, "unit": "°C"}, {"measurement": "change of melting temperature, mutant - wild type (higher = more stable)", "value": -11.8, "unit": "°C"}, {"measurement": "unfolding enthalpy (van 't Hoff)", "value": 84.7, "unit": "kcal/mol"}]}, {"variant": "MLKQVEIFTDGSCLGNPGPGGYGAILRYRGREKTFSAGYTRTTNNRMELMAFIVALEALKEHCEVILSTDSQYVRQGITQWIHNWKKRGWKTADKKPVKNVDLWQRLDAALGQHQIKWEWVKGHAGHPENERCDELARAAAMNPTLEDTGYQVEV", "values": [{"measurement": "Tm", "value": 51.5, "unit": "°C"}, {"measurement": "change of melting temperature, mutant - wild type (higher = more stable)", "value": -1.5, "unit": "°C"}, {"measurement": "unfolding enthalpy (van 't Hoff)", "value": 89, "unit": "kcal/mol"}]}, {"variant": "MLKQVEIFTDGSCLGNPGPGGYGAILRYRGREKTFSAGYTRTTNNRMELMAYIVALEALKEHCEVILSTDSQYVRQGITQWIHNWKKRGWKTADKKPVKNVDLWQRLDAALGQHQIKWEWVKGHAGHPENERCDELARAAAMNPTLEDTGYQVEV", "values": [{"measurement": "ddG of mutation (higher = less stable)", "value": 2.3, "unit": "kcal/mol"}, {"measurement": "Tm", "value": 45.4, "unit": "°C"}, {"measurement": "change of melting temperature, mutant - wild type (higher = more stable)", "value": -7.6, "unit": "°C"}, {"measurement": "unfolding enthalpy (van 't Hoff)", "value": 70.8, "unit": "kcal/mol"}]}]}
